Substrate: O=P(O)(O)O[C@H]1O[C@H](CO)[C@@H](O)[C@H](O)[C@H]1O
Assay: purified protein
Details: synthetic direction, glucosyl donor 0.5-10 mM, 20 mM D-glucose, 1 mM MgCl2, 10 mM DTT, Tris-HCl pH 7.5, 60 °C
Excerpt: Pi release from G-1-P, molybdate assay, Hanes-Woolf plot on TaCDP (initially TaCBP; THA_1941)

B1: TaCDP (initially TaCBP; THA_1941) (Thermosipho africanus TCF52B) (protein)
chain: MKKFDFVIENYSKQKLFSSFLPGIAGKNGIPLWVFYVNRGQCIASFGIENKANSILEFKPAGQSHTDTPLKGFRTFIKVDGRYYEPFSELTNFKREMRINKNSLEIEERNNELGLKVKVIYFVLPNEDFAALVRRVEIENEDKYEKHIEIIDGLPEVIPYGVSNGLYKEMGYTARAWMHVYNYEKKVPFYSVRTTIGDLEIVEEINNGYFYFASSGDELLEVIYDKNVLFGNSTSLQVPLVFKELGIKEVLRKEQYDENLLPSAFGVLERKLKDKVVINSMIGFSKEKGLINNNINTLKKDEYIISKKEEADLIVEELVSEIKTKTSNKLFDKYCEQNYLDNVLRGGYPLVFENKDGKVVYHIYSRKHGDLERDYNFFVLEAKKYSQGNGNFRDVAQNRRNDVIFHPEIEDFNLSMFVNLIQADGNNPLVVKGTRFKFEGDPSILDGVNEELKEFILNNYFTPGEILEKLKDKNVNEDEFVSKILYHSSQHEQAEFGEGYWIDHWTYLMDLVDTYKEIYPDKLQKTLFEKFEYKIYDSHAYVKPRKEKYKLYKGKVRQIAAVGESHEKLKIIQERGHNYLTDRNGNIYKTNMFEKLLLLAVNKFATLDPYGMGLEMEANKPGWNDALNGLPALFGSGMSETFELKRLINFMYEELKKYNKDIEVFEELQEFIQKIKVELENYFNDNDQFIYWDNVSNAKEEYRSKVFYSITGNKKKISKVELLAILKKMIKKLDEGIERAKNYGKGIYPTFFTYELVDYEVIDGVIIPKKFEVNVLPYFLEGIVRAFKVIDKDEKKKLYDFVKNSNIYDKKLKMYKTSESILNQPYSIGRIRAFTPGWLENESVFMHMEFKYLLELIKSDMLEEFYEDIKTALPPYMDYKVYGRSILENSSFIVSSANSNPNLHGQGFYARLSGSTAEFLSMWKYMFIGDKLFTLENNELTFTFEPKINKEFFENGVIEFKLFSKTKVKYVNPQLKEKIGRIEVFVDGKKFEIHGNKIKGELAHKLRNKKIDEVICYFE
  Km: 1570 ± 200 µM
  kcat: 7.61 ± 0.66 s⁻¹
  kcat/Km: 4850 M⁻¹ s⁻¹

Source: PMC5501786
